Results on twelve sequences are retold here after the DeepSol protein solubility set.

This data set is described as follows: soluble on expression in E. coli; label from the status in PepcDB or PDB records.
On to “MPEQAQTRRVFLFLQGPHGPFFHALGRMLRAAGAEVWRVGFNAGDRAFWFHPPSFIPYKGAHEDWPQAFADLLERKGVTDIVLYGDTRPIHASAVAAAKARGLGVHVFEEGYLRPYWVTYEREGSNGNSRLMDMTLEEMRAALALSDLETPLPPSHWGDMRQHIFYGALYHWFVMFTNQGYRRFKPHRDLPVTKEFQLYLQRLLLMPALAVERMLATARIRNGGFPYHLALLQLEHDSSFQQHSPFSTMTDFLEEIFDGFARGAPQHHHLVVKAHPLENGRVPLRREVRRLARQHGLEGRVHYVRGGKLAQLLNDARSAVTVNSTAGQQVLWRGIPLKVFGRAVYDKPEFVSTQTASEFFAAANRPDARAYKEYRRYLLETSQLPGGFYSRKGRRQLLRQVVDMMLSPDDPYDALKSGKAAPRQQLRLVN”, for which the “soluble on expression in E. coli” value is recorded as “not soluble”.

On to “MSLLKVRLCPAERPEAMLIDAHQHFWLMKDRAGQWPPPSLAAIYRDFLPTDLSPLLTAAGVSGTVLVQTMETAADTDFMLELAENTDFIKGVVGWVDMKSAEVTAEIARRAKHPAFKGVRPMLQGMEDVAWIDDAALNAAVEALVKHGLVFDALVLPPNLPHLLSFASKHPELPVVIDHGAKPLIATGHYRDWRRNMAALAARPNVHCKLSGLLTERGEQRPEAVRPYAETILELFGGDRVIFGSDWPVLRLAGDFQGWLDFCRDIVPAKDHAAVFGGNAIRFYSLTDREGHHHHHH”, for which the “soluble on expression in E. coli” value is “not soluble”.

Regarding “MDDLQADDIKTSDENSAMVLLVDDQAMIGEAVRRGLAGHESIDFHFCADPHQAIAQAVQIKPTVILQDLVMPGLDGLTLVREYRSNPLTRDIPIIVLSTKEDPLIKSAAFAAGANDYLVKLPDNIELVARIRYHSRSYMTLLQRDEAYRALRVSQQQLLDTNLVLQRLMNSDGLTGLSNRRHFDEYLELEWRRATRDQAQLSLLMIDVDYFKAYNDNFGHLEGDEALRQVAKAIRNSCSRPSDLPARYGGEEFAMVLPNTSPGGARLLAEKLRQSVAGMNIPHIAPVPGSSLTVSIGVATVTPQVGQHSRQLILDADKGLYLAKNNGRNQVAAG”, the “soluble on expression in E. coli” value is “soluble”.

Consider “MGSDKIHHHHHHMVRQRMTGKERREQLISIGRAVFAERGFDGASVEEIAARANVSKPVVYEHFGGKEGLYAVVIDREMVKLEAMITGSLQHGRSRYRIEQAVLALLTYVEDETDGFLILVRDMRPGERRSYGTLLNDATTQVSHILGNAFTRSGLNAEYANLYGQALVGMVSMTAQWWLDERTPPKEEVAAHIVNLCWNGLTGMEADPKLTPISSAEGAIFGQEKESEA”, for which the “soluble on expression in E. coli” value was “not soluble”.

As to “MTDNNKYRDVEIRAPRGNKLTAKSWLTEAPLRMLMNNLDPQVAENPKELVVYGGIGRAARNWECYDKIVETLTRLEDDETLLVQSGKPVGVFKTHSNAPRVLIANSNLVPHWANWEHFNELDAKGLAMYGQMTAGSWIYIGSQGIVQGTYETFVEAGRQHYGGSLKGKWVLTAGLGGMGGAQPLAATLAGACSLNIESQQSRIDFRLETRYVDEQATDLDDALVRIAKYTAEGKAISIALHGNAAEILPELVKRGVRPDMVTDQTSAHDPLNGYLPIGWTWEQYRDRAQTIPAAVVKAAKASMAVHVQAMLDFQKQGVPTFDYGNNIRQMAKEEGVANAFDFPGFVPAYIRPLFCRGVGPFRWAALSGEAEDIYKTDAKVKELIPDDAHLHRWLDMARERISFQGLPARICWVGLGLRAKLGLAFNEMVRSGELSAPVVIGRDHLDSGSVSSPNRETEAMRDGSDAVSDWPLLNALLNTAGGATWVSLHHGGGVGMGFSQHSGMVIVCDGTDEAAERIARVLTNDPGTGVMRHADAGYDIAIDCAKEQGLDLPMITG”, the “soluble on expression in E. coli” value was “soluble”.

For “MINTMTLDNGVRIITEKMSTVRSVSIGIWVGTGSRYESAEENGISHFLEHMFFKGTNTRSAQEIAEFFDSIGGQVNAFTSKEYTCYYAKVLDDHAGQAIDTLSDMFFHSTFQKEELEKERKVVFEEIKMVDDTPDDIVHDLLSSATYGKHSLGYPILGTVETLNSFNEGMLRHYMDRFYTGDYVVISVAGNVHDELIDKIKETFSQVKPTTYNYQGEKPMFLPNRIVRKKETEQAHLCLGYPGLPIGDKDVYALVLLNNVLGGSMSSRLFQDIREKRGLCYSVFSYHSSFRDSGMLTIYAGTGHDQLDDLVYSIQETTSALAEKGLTEKELENGKEQLKGSLMLSLESTNSRMSRNGKNELLLKKHRSLDEMIEQINAVQKQDVSRLAKILLSASPSISLINANGELPKALIHLEHHHHHH”, the “soluble on expression in E. coli” value is reported as “soluble”.

In the case of “MGSDKIHHHHHHMTQVHFTLKSEEIQSIIEYSVKDDVSKNILTTVFNQLMENQRTEYIQAKEYERTENRQSQRNGYYERSFTTRVGTLELKVPRTRDGHFSPTVFERYQRNEKALMASMLEMYVSGVSTRKVSKIVEELCGKSVSKSFVSSLTEQLEPMVNEWQNRLLSEKNYPYLMTDVLYIKVREENRVLSKSCHIAIGITKDGDREIIGFMIQSGESEETWTTFFEYLKERGLQGTELVISDAHKGLVSAIRKSFTNVSWQRCQVHFLRNIFTTIPKKNSKSFREAVKGIFKFTDINLAREAKNRLIHDYIDQPKYSKACASLDDGFEDAFQYTVQGNSHNRLKSTNLIERLNQEVRRREKIIRIFPNQTSANRLIGAVLMDLHDEWIYSSRKYINFDK”, the “soluble on expression in E. coli” value is “not soluble”.

Turning to “MKLDAKSTIETGKAILGIELGSTRIKAVLIDQENKPIAQGSHTWENQLVNGLWTYSIDAIWSGLQDCYADLRSNVKKLYDTEIETLAAIGVSAMMHGYMPFNEKEEILVPFRTWRNTNTGRAAAELSELFVYNIPLRWSISHLYQAILDNEAHVKDIKFLTTLAGYVHWQITGEKVLGIGDASGMLPIDPTTNNYSAEMVAKFNNLIASKEYSWKLEDILPKVLSAGENAGVLTPEGCKKLDASGHLKAGIPVCPPEGDA”, the “soluble on expression in E. coli” value was “not soluble”.

With “MDSGFTLRAPRNDKRRNPMPAILGTGEHRYRVVENFAKLPDGWQLTDVAAVAVDSLDRVYVFNRGAHPMVVLDREGNFLRSWGEGLFSRAHGLHIDADDNLYCTDDGDHTVRKCTSDGKVLLTIGIPAKPAPFMSGEPFHRCTHTALSPKGEIYVSDGYGNARVHKFTPDGKLIKSWGEPGTDPGQFNIVHNIATDSDGWVYVADRENHRVQVFNGEGKYETQWNNLHRPCALCCCGGRSPTFVIGELGPGLDINRNVPNLGPRLSIVDAKGNRIARLGGEEGPGVASGKFLAPHGIALDSKGDIYVGEVGVTNWATSFPDQEMPAVVRATRCLQKLERVRELEHHHHHH”, the “soluble on expression in E. coli” value is given as “not soluble”.

For “MGSDKIHHHHHHMGRRSHSRSLSIWTNGVRVGRWTVPARGEMELQYDVDWVRADVGRPLSLSLPFNLQNLPLKGERVANYFDNLLPDSDAIRRRVAERFRTGSVDPFDLLKAIGRDCVGAVQILEDEEIPEGFDRIEGVPLSEEDIERHLIETVTPRAFAAGRDPDADFRISLAGAQEKTAFLWWGGQWLAPRGATSTSHIFKLPLGLVGGRRADFSTSVDNEWLCLKLLKAYGLDVAEASIATFGQQRVLVVERFDRRVAPNGQWLMRLPQEDFCQVEGCSPLRKYENEGGPGLKALFATLRQSVNAAVDMRTLMAAQILFWLLRAPDGHAKNFSIQLLPRGRFQLTRLYDVMSAYPVLGDGANQWSPFEIKLAMALIGKNRHYEMHGIQRRHFNSTAQKVGYGPTAEPIIEDLLARTPAIIAAVQADLPQDFSPRVADSVLGGLAQAAKSLGAMMP”, the “soluble on expression in E. coli” value is “not soluble”.

For the sequence “AIAPDESAQVRFLIVGRTGWIANMVAELLEQRGERYAFASFRLEQREACELELDALRPQRVLNCAGVTGRPNVDWCEDHRRETVRSNVLGVLNLADCCASRGIHLTNFATGCLYHYDDGEHRPTAEGGRPFTEDDPPNFFGSYYSRTKAMVEELLRSAFDNVLILRLRMPVSDDLSPRSFVAKIARYEKVVNIPNSMTVLTELLPVALDMSERGLTGVYNFTNPGSISHNEVLELYRKYIDPKFQWKNFTLEEQAKILKAGRSNCELDVRKLLRDNPGAQIREVHAAMEEVFRRMQAKGVKPLAAP”, the “soluble on expression in E. coli” value is “soluble”.

In the case of “MSGALFLIPAPLGDETVAWLPEGERAKVVHITHFVVEAEKTARKHLKALGVTTPIRELSMSTLNEHTKETDVAALLAPLQAGHDVGLISEAGCPAVADPGAQLVALAHQRDIRVEPLIGPSSILLALMASGANGQCFAFHGYLPVDAAEKSKLVKELEQRSRKHNETQLFIETPYRNNALLAQLRETLAPSTRLAVACDLTLPTQTIVSHRVQDWPQNPPDLHKRPAIFVIHAALEHHHHHH”, the “soluble on expression in E. coli” value is listed as “soluble”.
